Assays:
TRPA1 = molecular target: T1, TRPA1 (Homo sapiens, UniProt O75762); assay: Ion channel panel (IonWorks Barracuda): TRPA1; assay type: cell-based; details: 100% = no change, <100% = inhibition
T1 construct: host or cells: HEK293 or CHO
Method in brief: (§1)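 Transfected HEK293 or CHO cells were exposed for at least 5 min to peptides at 200 nM and 20 μM final, tested in duplicate, in HEPES-buffered physiological saline. Activation was taken as peptide-plus-agonist current over control current ×100, and inhibition as 1 minus that ratio ×100. Each channel's control was its own reference compound.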

GABA = assay: Ion channel panel (IonWorks Barracuda): GABA; assay type: cell-based; details: 100% = no change, <100% = inhibition
Method in brief: as §1

Kir2.1 = molecular target: T2, Kir2.1 (Homo sapiens, UniProt P63252); assay: Ion channel panel (IonWorks Barracuda): Kir2.1; assay type: cell-based; details: 100% = no change, <100% = inhibition
T2 construct: host or cells: HEK293 or CHO
Method in brief: as §1

Nav1.5 = Nav1.5 (Homo sapiens, UniProt Q14524); assay: in vitro; details: 100% = no change; for Activity of Nav1.5 with peptide, expressed as a percentage of the reference compound: peptide at 0.2 μM; for Activity of Nav1.5 with peptide (percentage of the reference compound): peptide at 20 μM
Chain of Nav1.5 (Q14524 whole entry): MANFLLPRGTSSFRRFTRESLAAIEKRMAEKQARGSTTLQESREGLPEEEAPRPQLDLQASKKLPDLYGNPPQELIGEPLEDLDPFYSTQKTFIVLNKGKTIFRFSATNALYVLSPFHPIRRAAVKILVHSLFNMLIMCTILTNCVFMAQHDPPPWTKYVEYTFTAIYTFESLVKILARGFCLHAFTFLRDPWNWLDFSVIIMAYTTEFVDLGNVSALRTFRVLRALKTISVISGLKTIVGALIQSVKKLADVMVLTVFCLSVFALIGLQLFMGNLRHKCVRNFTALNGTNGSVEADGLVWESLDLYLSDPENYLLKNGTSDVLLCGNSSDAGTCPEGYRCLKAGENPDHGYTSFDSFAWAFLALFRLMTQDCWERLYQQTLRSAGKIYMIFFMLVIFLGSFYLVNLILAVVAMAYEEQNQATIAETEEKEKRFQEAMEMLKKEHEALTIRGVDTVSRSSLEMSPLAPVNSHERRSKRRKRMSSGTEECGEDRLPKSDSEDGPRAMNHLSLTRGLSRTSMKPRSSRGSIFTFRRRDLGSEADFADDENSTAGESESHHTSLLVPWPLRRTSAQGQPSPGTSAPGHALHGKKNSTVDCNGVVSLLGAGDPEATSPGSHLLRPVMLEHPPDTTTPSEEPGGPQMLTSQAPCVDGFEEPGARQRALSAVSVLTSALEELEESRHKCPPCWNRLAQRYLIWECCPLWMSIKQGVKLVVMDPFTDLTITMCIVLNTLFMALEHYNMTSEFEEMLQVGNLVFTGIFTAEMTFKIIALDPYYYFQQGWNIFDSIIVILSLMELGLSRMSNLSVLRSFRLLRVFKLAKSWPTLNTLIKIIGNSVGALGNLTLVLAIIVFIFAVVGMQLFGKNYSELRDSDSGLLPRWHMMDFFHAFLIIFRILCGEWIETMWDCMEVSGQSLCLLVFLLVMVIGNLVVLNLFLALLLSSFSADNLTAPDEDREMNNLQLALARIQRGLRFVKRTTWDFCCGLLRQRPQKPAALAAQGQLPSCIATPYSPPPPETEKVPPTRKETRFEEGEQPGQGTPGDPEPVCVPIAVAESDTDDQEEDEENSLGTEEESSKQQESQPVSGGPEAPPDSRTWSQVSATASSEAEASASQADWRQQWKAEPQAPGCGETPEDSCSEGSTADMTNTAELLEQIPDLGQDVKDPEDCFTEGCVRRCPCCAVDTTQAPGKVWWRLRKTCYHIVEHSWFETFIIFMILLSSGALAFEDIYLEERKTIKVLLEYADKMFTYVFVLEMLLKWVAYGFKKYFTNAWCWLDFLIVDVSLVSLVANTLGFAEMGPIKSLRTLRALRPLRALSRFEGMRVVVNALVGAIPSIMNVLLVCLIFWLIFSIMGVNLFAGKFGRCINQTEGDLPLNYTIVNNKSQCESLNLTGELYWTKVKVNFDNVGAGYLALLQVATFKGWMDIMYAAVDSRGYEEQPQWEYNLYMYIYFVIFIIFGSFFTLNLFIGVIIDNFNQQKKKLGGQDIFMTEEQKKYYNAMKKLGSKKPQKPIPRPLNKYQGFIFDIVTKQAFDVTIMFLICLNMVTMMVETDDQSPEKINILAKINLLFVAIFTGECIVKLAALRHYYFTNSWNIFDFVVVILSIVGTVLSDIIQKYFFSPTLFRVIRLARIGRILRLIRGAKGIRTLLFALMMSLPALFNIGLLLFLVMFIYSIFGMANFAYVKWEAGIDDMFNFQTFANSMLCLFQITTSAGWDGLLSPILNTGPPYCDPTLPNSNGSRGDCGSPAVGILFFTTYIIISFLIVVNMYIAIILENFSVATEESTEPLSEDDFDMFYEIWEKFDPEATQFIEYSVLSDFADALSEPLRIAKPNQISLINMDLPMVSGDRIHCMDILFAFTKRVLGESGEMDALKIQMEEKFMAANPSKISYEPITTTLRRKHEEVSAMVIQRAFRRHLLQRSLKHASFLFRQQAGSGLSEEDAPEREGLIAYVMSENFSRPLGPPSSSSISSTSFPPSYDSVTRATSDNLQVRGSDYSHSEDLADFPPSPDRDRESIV
Method in brief: as §1

hERG = hERG (Homo sapiens, UniProt Q12809); assay: in vitro; details: 100% = no change, <100% = inhibition
Method in brief: as §1

Nav1.7 = molecular target: T3, Nav1.7 (Homo sapiens, UniProt Q15858); assay: cell-based; assay type: cell-based; details: 100% = no change; for Activity of Nav1.7 with peptide, expressed as a percentage of the reference compound: peptide at 0.2 μM; for Activity of Nav1.7 with peptide (percentage of the reference compound): peptide at 20 μM
T3 construct: host or cells: HEK293 or CHO
T3 sequence (Q15858 whole entry): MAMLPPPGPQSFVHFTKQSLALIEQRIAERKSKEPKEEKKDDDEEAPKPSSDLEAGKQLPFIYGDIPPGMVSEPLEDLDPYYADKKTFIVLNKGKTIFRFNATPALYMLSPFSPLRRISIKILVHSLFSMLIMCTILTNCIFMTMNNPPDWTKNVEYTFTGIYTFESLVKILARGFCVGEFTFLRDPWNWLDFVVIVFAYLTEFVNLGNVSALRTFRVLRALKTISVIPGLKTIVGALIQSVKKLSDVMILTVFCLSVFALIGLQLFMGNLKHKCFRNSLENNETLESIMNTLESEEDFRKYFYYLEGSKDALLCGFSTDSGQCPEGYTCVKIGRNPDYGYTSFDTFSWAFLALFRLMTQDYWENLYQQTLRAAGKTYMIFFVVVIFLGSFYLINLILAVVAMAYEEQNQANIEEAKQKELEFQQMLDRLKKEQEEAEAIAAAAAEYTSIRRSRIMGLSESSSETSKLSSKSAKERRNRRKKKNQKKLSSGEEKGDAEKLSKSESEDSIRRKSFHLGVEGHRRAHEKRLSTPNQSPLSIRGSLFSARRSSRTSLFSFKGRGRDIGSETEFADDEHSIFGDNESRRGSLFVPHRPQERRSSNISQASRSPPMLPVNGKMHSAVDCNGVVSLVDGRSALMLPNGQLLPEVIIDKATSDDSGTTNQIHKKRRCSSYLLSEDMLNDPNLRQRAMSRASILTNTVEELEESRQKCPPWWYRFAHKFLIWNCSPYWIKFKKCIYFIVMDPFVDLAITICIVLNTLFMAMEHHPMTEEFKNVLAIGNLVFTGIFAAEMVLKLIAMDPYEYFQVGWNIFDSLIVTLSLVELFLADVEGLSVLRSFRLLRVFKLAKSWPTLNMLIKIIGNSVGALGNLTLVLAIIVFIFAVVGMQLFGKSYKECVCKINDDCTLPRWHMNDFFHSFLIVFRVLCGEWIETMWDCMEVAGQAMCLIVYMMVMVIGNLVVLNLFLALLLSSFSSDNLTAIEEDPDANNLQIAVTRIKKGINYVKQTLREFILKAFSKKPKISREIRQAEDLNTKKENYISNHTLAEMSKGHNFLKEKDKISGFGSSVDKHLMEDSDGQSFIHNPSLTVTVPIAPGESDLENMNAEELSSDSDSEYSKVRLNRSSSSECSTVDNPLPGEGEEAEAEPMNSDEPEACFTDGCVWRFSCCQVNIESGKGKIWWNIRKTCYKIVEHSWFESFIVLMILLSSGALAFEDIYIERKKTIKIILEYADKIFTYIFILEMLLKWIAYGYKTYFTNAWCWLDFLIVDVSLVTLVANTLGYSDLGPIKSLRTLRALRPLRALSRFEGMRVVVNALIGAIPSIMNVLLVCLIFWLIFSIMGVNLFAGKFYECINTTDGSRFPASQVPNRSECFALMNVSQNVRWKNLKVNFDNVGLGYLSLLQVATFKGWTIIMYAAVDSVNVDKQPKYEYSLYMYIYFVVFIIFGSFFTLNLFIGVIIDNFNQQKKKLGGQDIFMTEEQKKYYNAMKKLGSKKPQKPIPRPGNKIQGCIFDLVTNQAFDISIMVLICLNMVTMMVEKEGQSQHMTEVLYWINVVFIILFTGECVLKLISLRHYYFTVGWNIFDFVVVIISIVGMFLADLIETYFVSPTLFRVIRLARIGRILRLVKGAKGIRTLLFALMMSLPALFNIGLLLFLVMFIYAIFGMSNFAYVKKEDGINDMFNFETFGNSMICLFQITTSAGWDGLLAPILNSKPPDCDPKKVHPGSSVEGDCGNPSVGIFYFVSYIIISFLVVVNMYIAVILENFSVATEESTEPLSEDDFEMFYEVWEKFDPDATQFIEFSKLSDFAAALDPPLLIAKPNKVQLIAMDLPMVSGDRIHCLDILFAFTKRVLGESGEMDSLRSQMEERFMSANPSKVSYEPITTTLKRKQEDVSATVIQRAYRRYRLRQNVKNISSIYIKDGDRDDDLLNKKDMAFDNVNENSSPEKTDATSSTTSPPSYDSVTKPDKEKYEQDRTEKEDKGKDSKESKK

TRPV1 = molecular target: T4, TRPV1 (Homo sapiens, UniProt Q8NER1); assay: Ion channel panel (IonWorks Barracuda): TRPV1; assay type: cell-based; details: 100% = no change, <100% = inhibition
T4 construct: host or cells: HEK293 or CHO
Method in brief: as §1

5HT3a = molecular target: T5, 5HT3a (Homo sapiens, UniProt P46098); assay: Ion channel panel (IonWorks Barracuda): 5HT3a; assay type: cell-based
T5 construct: host or cells: HEK293 or CHO
T5 sequence (P46098 whole entry, looked up): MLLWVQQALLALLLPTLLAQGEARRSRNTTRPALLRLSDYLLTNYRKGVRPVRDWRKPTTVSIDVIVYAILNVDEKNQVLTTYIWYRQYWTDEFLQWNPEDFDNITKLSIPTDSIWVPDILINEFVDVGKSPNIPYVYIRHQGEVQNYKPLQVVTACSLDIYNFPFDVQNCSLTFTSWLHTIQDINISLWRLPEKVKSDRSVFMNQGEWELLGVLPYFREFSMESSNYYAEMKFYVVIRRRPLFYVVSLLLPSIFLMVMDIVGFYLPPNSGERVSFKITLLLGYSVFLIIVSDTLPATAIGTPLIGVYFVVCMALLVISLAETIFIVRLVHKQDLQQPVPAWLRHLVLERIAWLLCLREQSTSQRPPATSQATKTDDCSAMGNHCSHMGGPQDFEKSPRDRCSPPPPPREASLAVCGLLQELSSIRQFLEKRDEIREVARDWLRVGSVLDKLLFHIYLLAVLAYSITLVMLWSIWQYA
Method in brief: as §1

NR2B = molecular target: T6, NR2B (Homo sapiens, UniProt Q13224); assay: Ion channel panel (IonWorks Barracuda): NR2B; assay type: cell-based; details: 100% = no change, <100% = inhibition
T6 construct: host or cells: HEK293 or CHO
Method in brief: as §1

Kv1.2 = molecular target: T7, Kv1.2 (Homo sapiens, UniProt P16389); assay: cell-based; assay type: cell-based; details: 100% = no change, <100% = inhibition
T7 construct: host or cells: HEK293 or CHO
T7 sequence (P16389 whole entry): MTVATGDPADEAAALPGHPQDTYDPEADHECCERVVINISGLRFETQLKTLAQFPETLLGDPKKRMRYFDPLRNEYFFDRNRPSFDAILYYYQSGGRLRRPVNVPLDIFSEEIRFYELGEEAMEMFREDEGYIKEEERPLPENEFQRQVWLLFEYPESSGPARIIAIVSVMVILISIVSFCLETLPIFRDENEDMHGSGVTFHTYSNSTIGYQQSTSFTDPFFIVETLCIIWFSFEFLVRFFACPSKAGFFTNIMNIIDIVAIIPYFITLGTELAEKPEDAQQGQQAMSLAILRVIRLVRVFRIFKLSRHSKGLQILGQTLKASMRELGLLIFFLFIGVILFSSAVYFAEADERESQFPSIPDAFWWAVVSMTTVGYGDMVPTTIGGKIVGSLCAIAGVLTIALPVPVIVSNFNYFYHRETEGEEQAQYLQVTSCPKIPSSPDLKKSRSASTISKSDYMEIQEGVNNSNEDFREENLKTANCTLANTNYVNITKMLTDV
Method in brief: as §1

Kv1.3 = molecular target: T8, Kv1.3 (Homo sapiens, UniProt P22001); assay: cell-based; assay type: cell-based; details: 100% = no change, <100% = inhibition
T8 construct: host or cells: HEK293 or CHO
Method in brief: as §1

Kv1.1 = molecular target: T9, Kv1.1 (Homo sapiens, UniProt Q09470); assay: cell-based; assay type: cell-based; details: 100% = no change, <100% = inhibition
T9 construct: host or cells: HEK293 or CHO
T9 sequence (Q09470 whole entry): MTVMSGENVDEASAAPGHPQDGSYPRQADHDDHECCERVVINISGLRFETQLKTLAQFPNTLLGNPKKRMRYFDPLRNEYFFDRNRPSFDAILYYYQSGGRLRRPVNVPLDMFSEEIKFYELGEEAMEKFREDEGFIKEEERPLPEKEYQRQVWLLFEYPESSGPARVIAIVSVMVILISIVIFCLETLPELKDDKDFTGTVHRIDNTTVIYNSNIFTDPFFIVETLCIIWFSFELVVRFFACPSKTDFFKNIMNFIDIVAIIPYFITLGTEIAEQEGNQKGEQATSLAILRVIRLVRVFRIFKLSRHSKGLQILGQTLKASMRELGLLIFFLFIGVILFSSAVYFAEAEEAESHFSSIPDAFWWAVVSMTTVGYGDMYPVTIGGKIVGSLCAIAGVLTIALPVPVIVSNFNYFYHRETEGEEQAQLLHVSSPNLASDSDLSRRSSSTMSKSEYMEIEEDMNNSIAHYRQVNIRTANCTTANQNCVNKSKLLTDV
Method in brief: as §1

NR2A = molecular target: T10, NR2A (Homo sapiens, UniProt Q12879); assay: Ion channel panel (IonWorks Barracuda): NR2A; assay type: cell-based; details: 100% = no change, <100% = inhibition
T10 construct: host or cells: HEK293 or CHO
Method in brief: as §1

α3β4 = molecular target: T11, α3β4 (Homo sapiens, UniProt P30926+P32297); assay: Ion channel panel (IonWorks Barracuda): α3β4; assay type: cell-based; details: 100% = no change, <100% = inhibition
T11 construct: host or cells: HEK293 or CHO
Method in brief: as §1

α4β2 = molecular target: T12, α4β2 (Homo sapiens, UniProt P17787+P43681); assay: Ion channel panel (IonWorks Barracuda): α4β2; assay type: cell-based; details: 100% = no change, <100% = inhibition
T12 construct: host or cells: HEK293 or CHO
Method in brief: as §1

Cav2.1 = molecular target: T13, Cav2.1 (Homo sapiens, UniProt O00555); assay: cell-based; details: 100% = no change, <100% = inhibition
T13 construct: host or cells: HEK293 or CHO
Method in brief: as §1

Cav2.2 = molecular target: T14, Cav2.2 (Homo sapiens, UniProt Q00975); assay: cell-based; details: 100% = no change, <100% = inhibition
T14 construct: host or cells: HEK293 or CHO
Method in brief: as §1

Kv2.1 = molecular target: T15, Kv2.1 (Homo sapiens, UniProt Q14721); assay: cell-based; details: 100% = no change, <100% = inhibition
T15 construct: host or cells: HEK293 or CHO
Method in brief: as §1

[1] = first of two Nav1.5 columns (probably TP1)
[2] = second of two Nav1.5 columns (probably TP2)
[3] = first of two Nav1.7 columns (probably TP1)
[4] = second of two Nav1.7 columns (probably TP2)

## 3 (GSSEKDCIKHLQRCRENKDCCSKKCSRRGTNPEKRCR) [compound 3]
TRPA1; peptide at 0.2 μM
  Activity of TRPA1 with peptide, expressed as a percentage of the reference compound: 105%
TRPA1; peptide at 20 μM
  Activity of TRPA1 with peptide (percentage of the reference compound): 117%
GABA; peptide at 0.2 μM
  Activity of GABA with peptide, expressed as a percentage of the reference compound: 77%
GABA; peptide at 20 μM
  Activity of GABA with peptide (percentage of the reference compound): 111%
Kir2.1; peptide at 0.2 μM
  Activity of Kir2.1 with peptide, expressed as a percentage of the reference compound: 107%
Kir2.1; peptide at 20 μM
  Activity of Kir2.1 with peptide (percentage of the reference compound): 93%
Nav1.5; [1]
  Activity of Nav1.5 with peptide, expressed as a percentage of the reference compound: 113%
  Activity of Nav1.5 with peptide (percentage of the reference compound): 114%
Nav1.5; [2]
  Activity of Nav1.5 with peptide, expressed as a percentage of the reference compound: 111%
  Activity of Nav1.5 with peptide (percentage of the reference compound): 115%
hERG; peptide at 0.2 μM
  Activity of hERG with peptide, expressed as a percentage of the reference compound: 121%
hERG; peptide at 20 μM
  Activity of hERG with peptide (percentage of the reference compound): 81%
Nav1.7; [3]
  Activity of Nav1.7 with peptide, expressed as a percentage of the reference compound: 107%
  Activity of Nav1.7 with peptide (percentage of the reference compound): 90%
Nav1.7; [4]
  Activity of Nav1.7 with peptide, expressed as a percentage of the reference compound: 113%
  Activity of Nav1.7 with peptide (percentage of the reference compound): 68%
TRPV1; peptide at 0.2 μM
  Activity of TRPV1 with peptide, expressed as a percentage of the reference compound: 107%
TRPV1; peptide at 20 μM
  Activity of TRPV1 with peptide (percentage of the reference compound): 95%
5HT3a
  Activity of 5HT3a with peptide (percentage of the reference compound): 98%
  Activity of 5HT3a with peptide, expressed as a percentage of the reference compound: 109%
NR2B; peptide at 0.2 μM
  Activity of NR2B with peptide, expressed as a percentage of the reference compound: 93%
NR2B; peptide at 20 μM
  Activity of NR2B with peptide (percentage of the reference compound): 74%
Kv1.2; peptide at 0.2 μM
  Activity of Kv1.2 with peptide, expressed as a percentage of the reference compound: 88%
Kv1.2; peptide at 20 μM
  Activity of Kv1.2 with peptide (percentage of the reference compound): 45%
Kv1.3; peptide at 0.2 μM
  Activity of Kv1.3 with peptide, expressed as a percentage of the reference compound: 92%
Kv1.3; peptide at 20 μM
  Activity of Kv1.3 with peptide (percentage of the reference compound): 87%
Kv1.1; peptide at 0.2 μM
  Activity of Kv1.1 with peptide, expressed as a percentage of the reference compound: 99%
Kv1.1; peptide at 20 μM
  Activity of Kv1.1 with peptide (percentage of the reference compound): 73%
NR2A; peptide at 0.2 μM
  Activity of NR2A with peptide, expressed as a percentage of the reference compound: 97%
NR2A; peptide at 20 μM
  Activity of NR2A with peptide (percentage of the reference compound): 100%
α3β4; peptide at 0.2 μM
  Activity of a3b4 with peptide, expressed as a percentage of the reference compound: 99%
α3β4; peptide at 20 μM
  Activity of a3b4 with peptide (percentage of the reference compound): 92%
α4β2; peptide at 0.2 μM
  Activity of a4b2 with peptide, expressed as a percentage of the reference compound: 93%
α4β2; peptide at 20 μM
  Activity of a4b2 with peptide (percentage of the reference compound): 91%
Cav2.1; peptide at 0.2 μM
  Activity of Cav2.1 with peptide, expressed as a percentage of the reference compound: 102%
Cav2.1; peptide at 20 μM
  Activity of Cav2.1 with peptide (percentage of the reference compound): 131%
Cav2.2; peptide at 0.2 μM
  Activity of Cav2.2 with peptide, expressed as a percentage of the reference compound: 103%
Cav2.2; peptide at 20 μM
  Activity of Cav2.2 with peptide (percentage of the reference compound): 110%
Kv2.1; peptide at 0.2 μM
  Activity of Kv2.1 with peptide, expressed as a percentage of the reference compound: 80%
Kv2.1; peptide at 20 μM
  Activity of Kv2.1 with peptide (percentage of the reference compound): 81%

— patent publication US20200262877A1, “ION CHANNEL-BINDING PEPTIDES AND METHODS OF USE THEREOF” (priority 2017, published 2020)
